{"source": "patent US20050289668A1", "about": "“Plants with increased levels of one or more amino acids” (priority 2003, published 2005)", "molecules": {"B1": {"name": "L481K: E. coli threonine deaminase, Leu at position 481 replaced with Lys (protein, listed as Escherichia coli)", "chain": "MADSQPLSGAPEGAEYLRAVLRAPVYEAAQVTPLQKMEKLSSRLDNVILVKREDRQPVHSFKLRGAYAMMAGLTEEQKAHGVITASAGNHAQGVAFSSARLGVKALIVMPTATADIKVDRLRGFGGEVLLHGANFDEAKRKAIELSQQQGFTWVPPFDHPMVIAGQGTLALELLQQDAHLDRVFVPVGGGGLAACVAVLIKQLMPQIKVIAVEAEDSACLKAALDAGHPVDLPRVGLFAEGVAVKRIGDETFRLCQEYLDDIITVDSDAICAAMKDLFEDVRAVAEPSGALALAGMKKYIALHNIRGERLAHILSGANVNFHGLRYVSERCELVEQREALLAVTIPEEKGSFLKFCQLLGGRSVTEFNYRFADAKNACIFVGVRLSRGLEERKEILQMLNDGGYSVVDLSDDEMAKLHVRYMVGGRPSHPLQERLYSFEFPESPGALLRFLNTLGTYWNISLFHYRSHGTDYGRVLAAFEKGDHEPDFETRLNELGYDCHDETNNPAFRFFLAG"}, "B2": {"name": "Wild type Arabidopsis: wild type Arabidopsis threonine deaminase polypeptide (protein, UniProt Q9ZSS6 92-592, looked up)", "Threonine dehydratase …": "AMEYLTNILSTKVYDIAIESPLQLAKKLSKRLGVRMYLKREDLQPVFSFKLRGAYNMMVKLPADQLAKGVICSSAGNHAQGVALSASKLGCTAVIVMPVTTPEIKWQAVENLGATVVLFGDSYDQAQAHAKIRAEEEGLTFIPPFDHPDVIAGQGTVGMEITRQAKGPLHAIFVPVGGGGLIAGIAAYVKRVSPEVKIIGVEPADANAMALSLHHGERVILDQVGGFADGVAVKEVGEETFRISRNLMDGVVLVTRDAICASIKDMFEEKRNILEPAGALALAGAEAYCKYYGLKDVNVVAITSGANMNFDKLRIVTELANVGRQQEAVLATLMPEKPGSFKQFCELVGPMNISEFKYRCSSEKEAVVLYSVGVHTAGELKALQKRMESSQLKTVNLTTSDLVKDHLRYLMGGRSTVGDEVLCRFTFPERPGALMNFLDSFSPRWNITLFHYRGQGETGANVLVGIQVPEQEMEEFKNRAKALGYDYFLVSDDDYFKLLMH"}, "B3": {"name": "L481V: E. coli threonine deaminase, Leu at position 481 replaced with Val (protein, listed as Escherichia coli)", "chain": "MADSQPLSGAPEGAEYLRAVLRAPVYEAAQVTPLQKMEKLSSRLDNVILVKREDRQPVHSFKLRGAYAMMAGLTEEQKAHGVITASAGNHAQGVAFSSARLGVKALIVMPTATADIKVDRLRGFGGEVLLHGANFDEAKRKAIELSQQQGFTWVPPFDHPMVIAGQGTLALELLQQDAHLDRVFVPVGGGGLAACVAVLIKQLMPQIKVIAVEAEDSACLKAALDAGHPVDLPRVGLFAEGVAVKRIGDETFRLCQEYLDDIITVDSDAICAAMKDLFEDVRAVAEPSGALALAGMKKYIALHNIRGERLAHILSGANVNFHGLRYVSERCELVEQREALLAVTIPEEKGSFLKFCQLLGGRSVTEFNYRFADAKNACIFVGVRLSRGLEERKEILQMLNDGGYSVVDLSDDEMAKLHVRYMVGGRPSHPLQERLYSFEFPESPGALLRFLNTLGTYWNISLFHYRSHGTDYGRVLAAFEVGDHEPDFETRLNELGYDCHDETNNPAFRFFLAG"}, "B4": {"name": "L447F (ilvA219): E. coli threonine deaminase, Leu at position 447 replaced with Phe (protein, listed as Escherichia coli)", "chain": "MADSQPLSGAPEGAEYLRAVLRAPVYEAAQVTPLQKMEKLSSRLDNVILVKREDRQPVHSFKLRGAYAMMAGLTEEQKAHGVITASAGNHAQGVAFSSARLGVKALIVMPTATADIKVDRLRGFGGEVLLHGANFDEAKRKAIELSQQQGFTWVPPFDHPMVIAGQGTLALELLQQDAHLDRVFVPVGGGGLAACVAVLIKQLMPQIKVIAVEAEDSACLKAALDAGHPVDLPRVGLFAEGVAVKRIGDETFRLCQEYLDDIITVDSDAICAAMKDLFEDVRAVAEPSGALALAGMKKYIALHNIRGERLAHILSGANVNFHGLRYVSERCELVEQREALLAVTIPEEKGSFLKFCQLLGGRSVTEFNYRFADAKNACIFVGVRLSRGLEERKEILQMLNDGGYSVVDLSDDEMAKLHVRYMVGGRPSHPLQERLYSFEFPESPGAFLRFLNTLGTYWNISLFHYRSHGTDYGRVLAAFELGDHEPDFETRLNELGYDCHDETNNPAFRFFLAG"}, "B5": {"name": "L481M: E. coli threonine deaminase, Leu at position 481 replaced with Met (protein, listed as Escherichia coli)", "chain": "MADSQPLSGAPEGAEYLRAVLRAPVYEAAQVTPLQKMEKLSSRLDNVILVKREDRQPVHSFKLRGAYAMMAGLTEEQKAHGVITASAGNHAQGVAFSSARLGVKALIVMPTATADIKVDRLRGFGGEVLLHGANFDEAKRKAIELSQQQGFTWVPPFDHPMVIAGQGTLALELLQQDAHLDRVFVPVGGGGLAACVAVLIKQLMPQIKVIAVEAEDSACLKAALDAGHPVDLPRVGLFAEGVAVKRIGDETFRLCQEYLDDIITVDSDAICAAMKDLFEDVRAVAEPSGALALAGMKKYIALHNIRGERLAHILSGANVNFHGLRYVSERCELVEQREALLAVTIPEEKGSFLKFCQLLGGRSVTEFNYRFADAKNACIFVGVRLSRGLEERKEILQMLNDGGYSVVDLSDDEMAKLHVRYMVGGRPSHPLQERLYSFEFPESPGALLRFLNTLGTYWNISLFHYRSHGTDYGRVLAAFEMGDHEPDFETRLNELGYDCHDETNNPAFRFFLAG"}}, "key": {"soybean seeds": {"system": "soybean seeds", "test": "Free amino acid concentration in seeds of soybean transformed with threonine deaminase constructs (TCA extraction, OPA HPLC, fluorescence)", "format": "in vivo", "details": "transformed soybean plants", "method": "The concentration of free isoleucine in seeds was determined by crushing approximately 50 mg of seed, placing the crushed material in a centrifuge vial, and then weighing. One mL of 5% trichloroacetic acid was added to each sample vial. The samples were mixed, using a vortex mixer, at room temperature for 15 minutes. The samples were then spun in a microcentrifuge for 15 minutes at 14,000 rpm. Some of the supernatant was then removed, placed in a HPLC vial and sealed. Samples were kept at 4° C. prior to analysis. A single seed analysis was performed on all R1 soybean seed, with 5 seeds per event, and one injection per seed. For subsequent generations representing the R2 and R3 seeds, a bulk assay having 10 seeds for each event, and one injection per event was used. The samples were analyzed using the Agilent Technologies 1100 series HPLC system. A 0.5 μL aliquot of the sample was derivatized with 2.5 μL of OPA (o-phthalaldehyde and 3-mercaptopropionic acid in borate buffer, Hewlett-Packard PN 5061-3335) reagent in 10 μl of 0.4 N borate buffer pH 10.2 (Hewlett-Packard, PN 5061-3339). The derivative was injected onto an Agilent Technologies Eclipse® XDB-C18 3.5 μm, 4.6×75 mm at 2 mL/min flow rate. […] Isoleucine concentrations were measured using fluorescence detection (excitation at 340 nm, emission at 450 nm) and values were calculated from a standard curve ranging from 10 to 800 μg/mL. […]"}, "[1]": {"system": "E. coli threonine deaminase", "test": "Steady state kinetic analysis of E. coli ilvA threonine deaminase variants, continuous assay of α-ketobutyrate at 230 nm, with and without L-isoleucine", "format": "biochemical", "details": "for Km: E. coli ilvA TD expressed in E. coli, crude extract, pH 7.5, read-out: Km^Thr; for IC50: inhibition of TD activity by L-isoleucine", "method": "Before conducting further transformation experiments using the isolated ilvA alleles in transgenic plants, each allele was over-expressed in E. coli to determine its kinetic parameters. Kinetics data on threonine deaminases containing various mutations, and a comparison to data available for threonine deaminases from Arabidopsis, are provided in Table 4. The E. coli ilvA481 variants were subcloned into pSE380 (Invitrogen, Carlsbad, Calif.) and expression was induced with 0.2 mM IPTG at 37° C. for 3 hours. Expression of the E. coli alleles was high and fairly consistent as visualized by SDS-PAGE.\nThe effects of amino acid substitutions at Leu481 in ilvA were assessed by steady state kinetic analysis in the presence and absence of L-isoleucine. Threonine deaminase polypeptides for use in in vitro kinetics studies were extracted from E. coli cells in assay buffer containing 50 mM potassium phosphate (pH7.5), 1 mM dithiothreitol (DTT), and 0.5 mM ethylenediamine-tetraacetate. A continuous assay method was employed to monitor the formation of α-ketobutyrate directly at 230 nm (ε230 (pH7.5)=540 M^−1cm^−1 whereas threonine absorption was negligible (˜1%)). The assay was initiated by adding 20 μl of crude extract diluted 1:20 v/v to the assay vessel containing L-threonine (between 2.5 mM and 50 mM) in a final volume of 1 mL. For L-isoleucine inhibition, L-isoleucine was added between 0 mM and 20 mM. The kinetic parameters were determined by fitting the data points to the equations using GraFit 4.0 software (Erithacus Software, Surrey, UK). For comparison, the kcat values of L481 alleles were normalized to the kcat value for the wild type IlvA enzyme. Enzymes represented in FIG. 7 are: wild type E. coli threonine deaminase (circles), L481Y TD enzyme (diamonds), L481F TD enzyme (triangles), and the L481T TD enzyme (squares). Table 4 also summarizes the kinetic parameters of the variant threonine deaminase enzymes produced by the various E. coli ilvA alleles."}, "[2]": {"target": "T1, Arabidopsis threonine deaminase (Arabidopsis thaliana, UniProt Q9ZSS6)", "T1 sequence (Q9ZSS6 92-592)": "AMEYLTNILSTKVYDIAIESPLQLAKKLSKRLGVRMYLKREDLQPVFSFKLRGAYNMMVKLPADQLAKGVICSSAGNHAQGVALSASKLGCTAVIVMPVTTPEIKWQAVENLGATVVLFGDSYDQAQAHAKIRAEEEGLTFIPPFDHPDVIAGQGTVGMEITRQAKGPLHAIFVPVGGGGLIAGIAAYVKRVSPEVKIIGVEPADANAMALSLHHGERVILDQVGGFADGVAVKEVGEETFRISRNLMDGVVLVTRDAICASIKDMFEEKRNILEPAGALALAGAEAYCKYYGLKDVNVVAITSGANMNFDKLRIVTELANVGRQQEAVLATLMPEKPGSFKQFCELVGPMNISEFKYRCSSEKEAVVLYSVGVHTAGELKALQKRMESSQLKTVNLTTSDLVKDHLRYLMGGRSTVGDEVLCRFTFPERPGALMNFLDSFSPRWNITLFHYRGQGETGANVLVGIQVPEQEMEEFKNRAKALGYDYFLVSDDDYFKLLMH", "test": "Kinetics data for Arabidopsis threonine deaminases (comparison in Table 4, FIG. 6)", "format": "biochemical", "details": "initial velocity vs threonine concentration"}}, "data": [{"molecule": "ilvA466: mutagenized E. coli threonine deaminase gene containing the L481F mutation", "values": [{"measurement": "free isoleucine concentration in the seed", "setting": "soybean seeds", "value": "> 1300", "unit": "µg/g"}]}, {"molecule": "ilvA219: mutagenized E. coli threonine deaminase gene containing the L447F mutation", "values": [{"measurement": "free isoleucine concentration in the seed", "setting": "soybean seeds", "value": "> 600", "unit": "µg/g"}]}, {"molecule": "B1", "values": [{"measurement": "enzyme activity", "setting": "[1]; expressed in E. coli", "value": "poor enzyme activity"}]}, {"molecule": "B2", "values": [{"measurement": "cooperativity in substrate binding", "setting": "[2]", "value": "independent activity"}]}, {"molecule": "B3", "values": [{"measurement": "Km", "setting": "[1]", "value": 7.1, "unit": "mM"}, {"measurement": "IC50", "setting": "[1]", "value": 97, "unit": "µM"}]}, {"molecule": "B4", "values": [{"measurement": "cooperativity in substrate binding", "setting": "[1]; initial velocity vs threonine concentration", "value": "negative cooperativity"}]}, {"molecule": "B5", "values": [{"measurement": "Km", "setting": "[1]", "value": 6.4, "unit": "mM"}, {"measurement": "IC50", "setting": "[1]", "value": 100, "unit": "µM"}]}]}
